Source: US20150329627A1 (Eli Lilly, published 2015)
Positions count from the first letter of the chain named.

Experiments:
[1] = target: T1, human angiopoietin-2 (Ang2) (human, UniProt O15123 19-496); assay: KinExA; reference H1H685P-293HEK
T1 construct: Bought from R&D Systems (#623-AN); also called human Ang2; hAng2
T1 sequence: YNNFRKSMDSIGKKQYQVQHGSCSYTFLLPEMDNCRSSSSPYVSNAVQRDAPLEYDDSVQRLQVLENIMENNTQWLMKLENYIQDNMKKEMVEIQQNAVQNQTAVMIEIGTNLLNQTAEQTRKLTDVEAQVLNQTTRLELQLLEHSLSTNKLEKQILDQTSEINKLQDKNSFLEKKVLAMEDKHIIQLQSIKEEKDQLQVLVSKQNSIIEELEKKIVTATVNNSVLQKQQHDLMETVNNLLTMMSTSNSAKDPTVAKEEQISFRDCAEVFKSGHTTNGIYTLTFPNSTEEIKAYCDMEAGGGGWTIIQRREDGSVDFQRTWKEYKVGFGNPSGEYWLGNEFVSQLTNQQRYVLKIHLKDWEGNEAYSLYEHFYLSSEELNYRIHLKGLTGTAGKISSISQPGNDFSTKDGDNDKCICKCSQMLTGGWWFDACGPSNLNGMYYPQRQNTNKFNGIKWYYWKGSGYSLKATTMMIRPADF

[2] = target: T1, human angiopoietin-2 (Ang2); assay: blocking ELISA: antibody titrated against biotinylated human Ang2 (100 ng/ml), binding to coated human Tie2-Fc read
[3] = target: T1, human angiopoietin-2 (Ang2); assay: Biacore SPR, 25 C; reference 3.19.3-293HEK
[4] = target: T1, human angiopoietin-2 (Ang2); assay: Biacore SPR, 25 C, antibody captured on Protein A, soluble Ang2 injected
dog Ang2 = target: T2, dog Ang2 (dog, UniProt A0A8J8 19-495, limits assumed); assay: Biacore SPR, 37 C, n = 3
T2 sequence (looked up): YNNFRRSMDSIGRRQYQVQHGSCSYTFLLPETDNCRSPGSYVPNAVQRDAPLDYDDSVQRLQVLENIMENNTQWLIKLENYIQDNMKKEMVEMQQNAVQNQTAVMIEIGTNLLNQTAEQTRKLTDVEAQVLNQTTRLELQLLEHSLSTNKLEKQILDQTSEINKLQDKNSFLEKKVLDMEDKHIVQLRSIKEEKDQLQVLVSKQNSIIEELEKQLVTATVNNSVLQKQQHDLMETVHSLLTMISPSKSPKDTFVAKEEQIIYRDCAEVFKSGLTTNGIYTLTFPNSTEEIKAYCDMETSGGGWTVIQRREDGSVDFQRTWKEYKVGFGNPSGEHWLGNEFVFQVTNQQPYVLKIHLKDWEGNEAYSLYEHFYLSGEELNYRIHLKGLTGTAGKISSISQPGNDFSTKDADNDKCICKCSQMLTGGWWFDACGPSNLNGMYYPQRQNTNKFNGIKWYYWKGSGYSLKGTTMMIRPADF

cyno Ang2 = target: T3, cyno Ang2 (cynomolgus, UniProt A0A2K5VNX6 19-496); assay: Biacore SPR, 37 C, n = 3
T3 construct: also called cynomolgus Ang2
T3 sequence: T1 sequence with E258G, I279V, F284L, I291V, G410A, A468G, D477G

rabbit Ang2 = target: T4, rabbit Ang2 (rabbit, UniProt G1T9B3 19-496); assay: Biacore SPR, 37 C, n = 3
T4 sequence: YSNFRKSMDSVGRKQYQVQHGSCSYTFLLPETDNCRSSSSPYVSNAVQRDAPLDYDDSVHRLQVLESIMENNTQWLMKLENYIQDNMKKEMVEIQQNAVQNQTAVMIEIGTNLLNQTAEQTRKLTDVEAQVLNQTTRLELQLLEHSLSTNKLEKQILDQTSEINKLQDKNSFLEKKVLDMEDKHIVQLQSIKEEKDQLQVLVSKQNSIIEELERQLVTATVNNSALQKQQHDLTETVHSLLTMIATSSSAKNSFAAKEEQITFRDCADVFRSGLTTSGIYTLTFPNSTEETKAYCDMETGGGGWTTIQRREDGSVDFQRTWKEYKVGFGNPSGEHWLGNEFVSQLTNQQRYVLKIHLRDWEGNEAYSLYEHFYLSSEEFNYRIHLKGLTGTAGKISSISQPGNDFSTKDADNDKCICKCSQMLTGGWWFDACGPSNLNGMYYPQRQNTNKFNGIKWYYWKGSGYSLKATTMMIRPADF

mouse Ang2 = target: T5, mouse Ang2 (mouse, UniProt O35608 19-496, limits assumed); assay: Biacore SPR, 37 C, n = 3
T5 sequence (looked up): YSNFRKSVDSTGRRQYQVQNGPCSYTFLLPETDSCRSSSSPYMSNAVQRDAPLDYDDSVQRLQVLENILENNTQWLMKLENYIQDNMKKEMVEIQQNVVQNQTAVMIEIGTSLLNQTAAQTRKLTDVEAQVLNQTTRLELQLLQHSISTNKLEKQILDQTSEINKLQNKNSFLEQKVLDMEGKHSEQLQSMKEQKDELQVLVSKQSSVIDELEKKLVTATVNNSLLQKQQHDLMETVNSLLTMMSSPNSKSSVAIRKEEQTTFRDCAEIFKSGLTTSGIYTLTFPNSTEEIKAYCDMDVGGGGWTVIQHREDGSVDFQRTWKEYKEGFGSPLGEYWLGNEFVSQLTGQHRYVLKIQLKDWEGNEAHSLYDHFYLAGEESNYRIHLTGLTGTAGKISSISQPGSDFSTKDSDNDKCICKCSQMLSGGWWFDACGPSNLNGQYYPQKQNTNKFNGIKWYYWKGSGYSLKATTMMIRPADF

[5] = target: T1, human angiopoietin-2 (Ang2); assay: Biacore SPR, 37 C, n = 3
rat Ang2 = target: T6, rat Ang2 (rat, UniProt O35462 19-496, limits assumed); assay: Biacore SPR, 37 C, n = 3
T6 sequence (looked up): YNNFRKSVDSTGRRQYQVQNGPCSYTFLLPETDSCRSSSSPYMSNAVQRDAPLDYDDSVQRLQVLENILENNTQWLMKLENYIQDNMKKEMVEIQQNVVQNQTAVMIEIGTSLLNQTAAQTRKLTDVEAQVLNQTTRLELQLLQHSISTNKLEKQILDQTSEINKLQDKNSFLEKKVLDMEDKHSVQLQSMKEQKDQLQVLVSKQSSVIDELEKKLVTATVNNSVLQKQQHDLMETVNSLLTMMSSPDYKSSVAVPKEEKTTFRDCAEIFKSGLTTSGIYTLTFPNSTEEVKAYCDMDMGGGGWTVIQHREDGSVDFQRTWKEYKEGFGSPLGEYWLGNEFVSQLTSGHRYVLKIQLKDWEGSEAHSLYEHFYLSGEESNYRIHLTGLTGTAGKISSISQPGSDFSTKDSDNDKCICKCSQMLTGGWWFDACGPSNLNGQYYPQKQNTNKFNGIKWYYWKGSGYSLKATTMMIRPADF

[6] = target: T1, human angiopoietin-2 (Ang2); assay: cell-based or functional assay
[7] = target: T1, human angiopoietin-2 (Ang2); assay: Biacore SPR, 25 C; reference H1H685P-293HEK
[8] = target: T1, human angiopoietin-2 (Ang2); assay: KinExA 3200, solution equilibrium at 25 C, human Ang2 on sepharose beads

fold lower KD than H1H685P-293HEK [1]: ~8 fold
IC50 [2]: 0.027 nM
fold lower KD than 3.19.3-293HEK [3]: ~8 fold
Kd [4]: 0.038 nM
koff [4]: 2.8e-05 s⁻¹
kon [4]: 747000 M⁻¹ s⁻¹
Kd (dog Ang2): 0.14 nM
koff (dog Ang2): 0.00011 s⁻¹
kon (dog Ang2): 790000 M⁻¹ s⁻¹
Kd (cyno Ang2): 0.107 nM
koff (cyno Ang2): 0.00029 s⁻¹
kon (cyno Ang2): 2.7e+06 M⁻¹ s⁻¹
Kd (rabbit Ang2): 0.21 nM
koff (rabbit Ang2): 0.00015 s⁻¹
kon (rabbit Ang2): 730000 M⁻¹ s⁻¹
Kd (mouse Ang2): 0.109 nM
koff (mouse Ang2): 0.00011 s⁻¹
kon (mouse Ang2): 1e+06 M⁻¹ s⁻¹
Kd [5]: 0.08 nM
koff [5]: 7e-05 s⁻¹
kon [5]: 1e+06 M⁻¹ s⁻¹
Kd (rat Ang2): 0.18 nM
koff (rat Ang2): 0.0002 s⁻¹
kon (rat Ang2): 1.2e+06 M⁻¹ s⁻¹
IC50, neutralization of human Ang2 induced phospho-Tie-2 in CHO-Tie-2 cells [6]: 0.773 nM
fold lower KD than H1H685P-293HEK [7]: ~4 fold
Kd [8]: 0.00011 nM
B1: Antibody A (antibody, human IgG4 S228P, kappa, F234A L235A, V domains shown)
VH: QVQLVQSGAEVKKPGASVKVSCKASGYSFTDYNMVWVRQAPGQGLEWMGYIDPYNGGTGYNQKFEGRVTMTTDTSTSTAYMELRSLRSDDTAVYYCARTRDRYDVWYFDVWGQGTLVTVSS
VL: DIQMTQSPSSVSASVGDRVTITCKASQDVYIAVAWYQQKPGKAPKLLIYWASTRDTGVPSRFSGSGSGTDFTLTISSLQPEDFATYYCHQYSSYPPTFGGGTKVEIKR
